Source: US20180221507A1 (IMAGINAB, published 2018)
Blank lines part the entries; values can stand above or below the binder they belong to.

Target: T1, CD8 expressed on the surface of HPB-ALL cells (UniProt P01732 22-235)
T1 construct: whole, on cells
Assay: flow cytometry on HPB-ALL cells, MFI against concentration, four-parameter fit
Method: The cells were centrifuged at 400 rpm for 5 minutes, re-suspended in 200 uL of cell staining buffer (1% BSA in phosphate buffer saline, 0.09% sodium azide). Data were acquired on the Attune Acoustic Focusing Cytometer (Applied Biosystems, Foster City, Calif.) (FIG. 9A) and Mean Fluorescent Intensity (MFI) values were plotted against concentration for each sample (FIG. 9B). Best fit binding curves and IC₅₀ values were generated with four-parameter logistic nonlinear regression using GraphPad Prism version 6 for Windows (GraphPad Software, La Jolla, Calif.). and binding assessed on an Attune acoustic focusing cytometer (Applied Biosystems) (Table 4.3).

T1 sequence (P01732 22-235): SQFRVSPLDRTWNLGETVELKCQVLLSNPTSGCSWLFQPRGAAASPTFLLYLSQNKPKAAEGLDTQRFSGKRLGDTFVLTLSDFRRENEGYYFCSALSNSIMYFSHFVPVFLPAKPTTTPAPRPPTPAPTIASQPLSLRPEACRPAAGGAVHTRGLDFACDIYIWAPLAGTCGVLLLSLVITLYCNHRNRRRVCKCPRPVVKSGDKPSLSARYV

- EC50: 150 pM
B1: IAB22C-2 (other)
scFv: DVQITQSPSSLSASVGDRVTITCRTSRSISQYLAWYQQKPGKVPKLLIYSGSTLQSGVPSRFSGSGSGTDFTLTISSLQPEDVATYYCQQHNENPLTFGGGTKVEIKSGGGGEVQLVESGGGLVQPGGSLRLSCAASGFNIKDTYIHFVRQAPGKGLEWIGRIDPANDNTLYASKFQGKATISADTSKNTAYLQMNSLRAEDTAVYYCGRGYGYYVFDHWGQGTLVTVSSGGCPPC
notes: Cys-diabody (scFv dimer); also called anti-CD8 Cys-diabody, 2 Cys (CPPC)

- EC50: 80 pM
B2: IAB22C-1 (other)
scFv: DVQITQSPSSLSASVGDRVTITCRTSRSISQYLAWYQQKPGKVPKLLIYSGSTLQSGVPSRFSGSGSGTDFTLTISSLQPEDVATYYCQQHNENPLTFGGGTKVEIKGGGSGGGGEVQLVESGGGLVQPGGSLRLSCAASGFNIKDTYIHFVRQAPGKGLEWIGRIDPANDNTLYASKFQGKATISADTSKNTAYLQMNSLRAEDTAVYYCGRGYGYYVFDHWGQGTLVTVSSGGC
notes: Cys-diabody (scFv dimer); also called anti-CD8 Cys-diabody, 1 Cys (GGC)

- EC50: 130 pM
B3: IAB22C-3 (other)
scFv: DVQITQSPSSLSASVGDRVTITCRTSRSISQYLAWYQQKPGKVPKLLIYSGSTLQSGVPSRFSGSGSGTDFTLTISSLQPEDVATYYCQQHNENPLTFGGGTKVEIKSGGGGEVQLVESGGGLVQPGGSLRLSCAASGFNIKDTYIHFVRQAPGKGLEWIGRIDPANDNTLYASKFQGKATISADTSKNTAYLQMNSLRAEDTAVYYCGRGYGYYVFDHWGQGTLVTVSSGGCPPCPPC
notes: Cys-diabody (scFv dimer); also called anti-CD8 Cys-diabody, 3 Cys (CPPCPPC)
